Results reported in IntAct's records for PubMed 9647694.

B1: ATP-sensitive inward rectifier potassium channel 10 (Mus musculus), Q9JM63 (parent)
chain: MTSVAKVYYSQTTQTESRPLVAPGIRRRRVLTKDGRSNVRMEHIADKRFLYLKDLWTTFIDMQWRYKLLLFSATFAGTWFLFGVVWYLVAVAHGDLLELGPPANHTPCVVQVHTLTGAFLFSLESQTTIGYGFRYISEECPLAIVLLIAQLVLTTILEIFITGTFLAKIARPKKRAETIRFSQHAVVASHNGKPCLMIRVANMRKSLLIGCQVTGKLLQTHQTKEGENIRLNQVNVTFQVDTASDSPFLILPLTFYHVVDETSPLKDLPLRSGEGDFELVLILSGTVESTSATCQVRTSYLPEEILWGYEFTPAISLSASGKYIADFSLFDQVVKVASPSGLRDSTVRYGDPEKLKLEESLREQAEKEGSALSVRISNV

Variants of: B1
Settings: with inadl_mouse Patj

effect of a mutation on the interaction	Variant
disrupting interaction	S377G
disrupting interaction	V379A
